The subject of this data set is MS2 coat protein. Kind of data set: apparent KD of MS2 coat protein; designed switch direction (-1 OFF switch, 1 ON switch): 1; higher = weaker reporter binding. Put shortly: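 RNA switches sharing common flanks were transcribed by stalled E. coli RNA polymerase on Illumina chips. A doubling series of SNAP-549-labelled MS2 coat protein, from 0.7 or 1.5 nM to 3 µM, was applied in Tris-HCl pH 7.5 buffer with KCl, MgCl2, BSA, DTT, tRNA and Tween-20. Each step lasted 0.8–1.5 h at the bottom of the series and 10–20 min at the top. Normalised cluster fluorescence was curve-fitted, giving apparent KD as the per-design median over clusters.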

The mark [1] stands for this setting: Eterna round: R95, input ligand: FMN 200 uM.
The mark [2] stands for this setting: Eterna round: R95, input ligand: microRNA oligo, concentration not stated.
[3] abbreviates: Eterna round: R95, input ligand: none.
Setting [4] is: input ligand: microRNA oligo, concentration not stated.

Regarding “GGAUCCGGCACUGAGGAUAUUCAUAUUUAAACAUGAGGAUCACCCAUGUAGGCCAGAAGGCCUUGGGAGAAGGCAGGUCGGCUCG [salish99_ss2_r3_082] (puzzle: Same State 2)”, the “apparent KD of MS2 coat protein” value was found to be 27.6 nM under setting [1], 268 nM under setting [2] and 484 nM under setting [3].
Turning to “GGAUGAUAGACAGGAUAUUGAUUGUAAUUUUGUCAAGAAGGGUCUUUGAUUUAAACGACCAGUUACAUGAGGAUCACCCAUGUU [JR_SSNG1_Sub030] (Eterna round: R96, puzzle: Same State NG 1)”, the “apparent KD of MS2 coat protein” value was determined as 20.1 nM (input ligand: FMN 200 uM), 27.6 nM under setting [4] and 30.3 nM (input ligand: none).
Taken in the same sequence, the figures for “GGAUUGGAGGCAGGAUAUGGGCUCAGAACAUGAGGAUCACCCAUGUAAAACGGCGCGAUGCGCCACCAGAAGGGCCUCCGAUCG [Tiaonbira] (Eterna round: R96, puzzle: Same State NG 2)” were 12.8 nM, 23.8 nM and 37.3 nM.
As to “GGCAGACAUGAGGAUCACCCAUGUCGGCCGUUAGGAGGAUAUCGGUGAUAUCUGUCUCGCCGAGAAGGUUUAAUUA [Onaterleza] (puzzle: Same State 1)”, under setting [2], the “apparent KD of MS2 coat protein” value was 9.71 nM.
In the case of “GGCAGGUGCAGGCUUGCUUGCACCUGGAAACAUGAGGAUCACCCAUGUUUGGGACAAGCUUUGCUCCUCGUUUUGUC [JL ViennaUCT Isusreraar mod 3] (puzzle: Sensor for hsa-mir-208a)”, the “apparent KD of MS2 coat protein” value is, setting by setting: under setting [1], 209 nM; under setting [2], 133 nM; under setting [3], 288 nM.
“GGCGAACAGGCUAACAUGAGGAUCACCCAUGUGGACUCAUGGUAGGAUAUCGGGAAGGAGGAAACCGAGAAGGGCCGGUGAGCC [AK SSNG3-V2-48] (Eterna round: R96, puzzle: Same State NG 3)”: the “apparent KD of MS2 coat protein” value worked out at 14.3 nM (input ligand: FMN 200 uM), 20 nM under setting [4] and 716 nM (input ligand: none).
Take “GGGAGACAUGAGGAUCACCCAUGUGGGAGGGAACGAGGAUAUGUAAGGAGAGAGAAUAGAACAGAAGGCGUAGGUG [JR_SS1_Sub022] (puzzle: Same State 1)”: the “apparent KD of MS2 coat protein” value under setting [1] was found to be 50 nM, the “apparent KD of MS2 coat protein” value under setting [2] came to 50 nM and the “apparent KD of MS2 coat protein” value under setting [3] came out at 61.9 nM.
With “GGGCCAGCUUGUGCUGGGCCUUCGCAUGCACAUGAGGAUCACCCAUGUCGUGUACAUGCUUUUUGCUCGUCUUUAAA [Photon Torp-11] (puzzle: Sensor for hsa-mir-208a)”, the “apparent KD of MS2 coat protein” value is, setting by setting: under setting [1], 39.6 nM; under setting [2], 14 nM; under setting [3], 40.8 nM.
Taken in the same sequence, the figures for “GGGCCAGCUUGUGCUGGGCCUUCGCUUGCACAUGAGGAUCACCCAUGUCGUGUACAUGCUUGGUGCCCGUCUUUCCC [Photon Torp-15] (puzzle: Sensor for hsa-mir-208a)” were 182 nM, 49.2 nM and 201 nM.
Take “GGUAAGAACUAAGGAUAUUGAAUACAUAUGUUUAACAUGAGGAUCACCCAUGUGGGUUGCGGUGUCGAGAAGGUAGAAUAAUAG [Mat - same State NG 2 - JL mod - D102] (Eterna round: R96, puzzle: Same State NG 2)”: the “apparent KD of MS2 coat protein” value (input ligand: FMN 200 uM) came out at 204 nM, the “apparent KD of MS2 coat protein” value under setting [4] was 166 nM and the “apparent KD of MS2 coat protein” value (input ligand: none) came out at 193 nM.
Taken in the same sequence, the figures for “GGUAGGUUACUACCAACACAUGAGGAUCACCCAUGUUAUGGGAAGGAUAUGGUACCUAUUUGGUACCAGAAGGUCCAGUUAAUU [Fiskers NG3ss - 16] (Eterna round: R96, puzzle: Same State NG 3)” were 77.6 nM, 206 nM and 449 nM.
As for “GGUCCAGCCUGAGCUGGACAAAAGCAUGUACAUGAGGAUCACCCAUGUCAUGUACAAGCUUUUUGCUCGUUUUAAAA [JL mod - D87 - 14] (puzzle: Sensor for hsa-mir-208a)”, the “apparent KD of MS2 coat protein” value is 527 nM under setting [1], 14.5 nM under setting [2] and 576 nM under setting [3].
Turning to “GGUCCAGCCUGAGCUGGACAAAAGCAUGUACAUGAGGAUCACCCAUGUUAUGUACAAGCUUUUUGCUCGUCUUAAAA [JL mod - D87 - 10] (Eterna round: R96, puzzle: Sensor for hsa-mir-208a)”, the “apparent KD of MS2 coat protein” value is, setting by setting: (input ligand: FMN 200 uM) 183 nM; under setting [4], 12.2 nM; (input ligand: none) 188 nM.
On to “GGUCCAGCCUGAGCUGGACAAAAGCAUGUACAUGAGGAUCACCCAUGUUAUGUACAAGCUUUUUGCUCGUCUUAAAA [JL mod - D87 - 10] (puzzle: Sensor for hsa-mir-208a)”, for which the “apparent KD of MS2 coat protein” value came out at 172 nM under setting [1], 12.6 nM under setting [2] and 231 nM under setting [3].
“GGUCCAGCCUGAGCUGGACAAAAGCAUGUACAUGAGGAUCACCCAUGUUCAUGUACAAGCUUUUUGCUCGUCUUACA [salish99_208a_r3_084] (puzzle: Sensor for hsa-mir-208a)”: the “apparent KD of MS2 coat protein” value turned out to be 485 nM under setting [1], 14.8 nM under setting [2] and 443 nM under setting [3].
Taken in the same sequence, the figures for “GGUCCAGCCUGAGCUGGACAAAAGUAUGUACAUGAGGAUCACCCAUGUCAUGUACAAGCUUUUUGCUCGUCUUAAAA [JL mod - D87 - 9] (puzzle: Sensor for hsa-mir-208a)” were 430 nM, 22.4 nM and 486 nM.
Taken in the same sequence, the figures for “GGUCCAGCCUGAGCUGGACGGUAGUAUGUACAUGAGGAUCACCCAUGUCAUGUAGAAGUUACUUGUUCGUCUUGAAC [SENSOR #1] (puzzle: Sensor for hsa-mir-208a)” were 15.1 nM, 13.3 nM and 14.9 nM.
In the case of “GGUCCAGCCUGAGCUGGACUACAGCAUGUACAUGAGGAUCACCCAUGUCAUGUACAUGUUUUUUGUUUGUCUUAAAA [Sensorship 9 - Jieux - Sensor for hsa-mir-208a] (Eterna round: R96, puzzle: Sensor for hsa-mir-208a)”, the “apparent KD of MS2 coat protein” value was determined as 200 nM (input ligand: FMN 200 uM), 57.5 nM under setting [4] and 503 nM (input ligand: none).
As for “GGUCCAGCCUGAGCUGGACUACAGCAUGUACAUGAGGAUCACCCAUGUCAUGUACAUGUUUUUUGUUUGUCUUAAAA [Sensorship 9 - Jieux - Sensor for hsa-mir-208a] (puzzle: Sensor for hsa-mir-208a)”, the “apparent KD of MS2 coat protein” value under setting [1] came out at 69 nM, the “apparent KD of MS2 coat protein” value under setting [2] is 70.1 nM and the “apparent KD of MS2 coat protein” value under setting [3] turned out to be 99.4 nM.
As to “GGUCCAUCAUGAGGAUAUGGCACCUUAUUGGUGCCAGAAGGCAUGUCUAUGACAUGAGGAUCACCCAUGUAAAUAAAUUGGACC [Eli NG1ss - 94] (Eterna round: R96, puzzle: Same State NG 1)”, the “apparent KD of MS2 coat protein” value (input ligand: FMN 200 uM) stood at 32.3 nM, the “apparent KD of MS2 coat protein” value under setting [4] worked out at 243 nM and the “apparent KD of MS2 coat protein” value (input ligand: none) was 232 nM.
On to “GGUCCCUACGCACAGGAUAUUCUUUUGGCAACAUGAGGAUCACCCAUGUGUGCCGAUCAUGGUUAGAAGAAGGGUGGUAAGGACG [Qucesosobe] (puzzle: Same State 2)”, for which the “apparent KD of MS2 coat protein” value came out at 9.76 nM under setting [1], 10.8 nM under setting [2] and 12.2 nM under setting [3].
The like results for “GGUCCGGCCUGAGCUGGACCGAAGCAUGUACAUGAGGAUCACCCAUGUUCAUGUGCAGGCUUUUUGCUCGUCUUGUG [JL-shm-2.05 JL mod] (puzzle: Sensor for hsa-mir-208a)” were, in that order, 91.7 nM, 12.7 nM and 106 nM.
Consider “GGUCGGACUCACAUGAGGAUCACCCAUGUUGCGGAAACGCGAUAGGAUAUCUGUCCGAAAAGGUCAGAGAAGGGUCAACCGACC [Fiskers NG3ss - 64] (Eterna round: R96, puzzle: Same State NG 3)”, for which the “apparent KD of MS2 coat protein” value reads like this: (input ligand: FMN 200 uM) 447 nM; under setting [4], 486 nM; (input ligand: none) 567 nM.
The like results for “GGUCGGUCCUACAUGAGGAUCACCCAUGUUCCGGAAACGGCAUAGGAUAUCUGUCCGAAAAGGUCAGAGAAGGGUGAACCGACC [Fiskers NG3ss - 73] (Eterna round: R96, puzzle: Same State NG 3)” were, in that order, 153 nM, 118 nM and 189 nM.
Taken in the same sequence, the figures for “GGUGCCAAAUAAGCCUACAUGAGGAUCACCCAUGUAUGUAGGUAGGAUAUCGUUUGCAAAGCAAACGAGAAGGGCCUAGGCACC [Mat - Same State NG 3 - JL Mod - D59] (Eterna round: R96, puzzle: Same State NG 3)” were 26.1 nM, 39.3 nM and 50.7 nM.
The like results for “GGUGCCAAUAAAGCCUACAUGAGGAUCACCCAUGUAUGUAGGCAGGAUAUCGUUUGCAAAGCAAACGAGAAGGGCCUAGGCACC [Mat - Same State NG 3 - JL Mod - D61] (Eterna round: R96, puzzle: Same State NG 3)” were, in that order, 18.6 nM, 21.4 nM and 31.5 nM.
Regarding “GGUGGGUUGCUACCGGCACAUGAGGAUCACCCAUGUUUUGGGAAGGAUAUGGUACCUAUUUGGUACCAGAAGGUCCCGUUGGUG [salish99_SSNG3_r04_708] (Eterna round: R96, puzzle: Same State NG 3)”, the “apparent KD of MS2 coat protein” value under setting [4] is 176 nM.

The record behind these values is the supplement of paper PMC9170038.
